# Test results published in the DeepSol protein solubility set.
# Test: soluble on expression in E. coli; label from the status in PepcDB or PDB records
row,Sequence,soluble on expression in E. coli
1,MGSDKIHHHHHHMEKIIVNGRKNGQKIEIACSNLVMGAGDFLRADNMDFAGPVLDQYFEMGGNIFDTARHYRHSEKAIGAWMNMRGNRDSVIIQTKGGHPVREASDVPRVTPEAIHEDISVSLDTLQTDHVELFALHRDNPDVEVGSIMEAMHKEVEAGRVYAIGLSNWELSRIIEANEYAVNHGLTPLSFNSPNFSLAKVNRPRWENCVSANEEMIRWHEATNLPLFSWSSQAGGFFSGRFSEEDTSDTEMVEVYYSEANWERYSRAKQLANQKGCTPIQISLAYVLTQSFPTAAVIGPENTTELQSSVAAAGIKLTASEVDWLDLKA,not soluble
2,MDANEFHWLMDMLESVEVGLVVLDLDFHVQAWNGFMEHHSGITARQIRDKVLFEVFPDIPEAWLTRKVDAVAMLNTRAFTSWEQRPYLFKFRNTRPITGTEEYMFQNLTISPITAPNGEVEKVCLLVYDVTEFASSKRALERANEQLAKLSMTDRLTGLLNRGTWENLVDAEYERFRRYGQATSLVMFDIDHFKPVNDTYGHLAGDEVIRHTADVTRNNIRQSDSAGRYGGEEFGIILPETDAESARVICERIREAIEKSTVSTSAGDIQYTVSMGIAQLTETPENYMQWMQKADEALYKAKESGRNKVVVSLEHHHHHH,soluble
3,MAHHHHHHMDATPHMHAKTIFMTHWDGLEKDSDARIIVVGATNRRFTIDDAIRRRLPLQLEVPPPDAKAREKILSILLAHDLEYNPKKDGLIRYVALKTAEYTGSDLSELCKAAALMPLREMESMKAGGASSAAPETVPPLTQQHFDKAMERVKASK,soluble
4,GIDVIGKKMTLCQLYAKQNAVRPNVKANTKSGRKYLMEILKNDRLGARSIDSIKPSDAKEWAIRMSENGFAYSTINNYKRSLRASFYIAIQDDYVRKNPFDFQLNTVIDDDTIPKTVLTSEQEARLLDFAKSDTVYHKNYDEILILLKTGLRISELCGLTVSDLDFENHLISVDHQLLRNTELGYYIETPKTKSSERQIPMEATCQALKRTLAKRDDRKCVEIDGYSHFLFLNRKGYPKTSGDFDRILRNLIKKYNKYHEEKLPHITPHTLRHTFCTNCANAGMNPKALQYIMGHANITMTLNYYAHATYKFGYG,not soluble
5,MSLDSACEGRFVNPITDICWSCIFPLSLGSIKVSQGKVPDTANPSMPIQICPAPAPLFRRIGLAIGYWEPMALTDVTRSPGCMVNLGFSLPAFGKTAQGTAKKDEKQVNGAFYHVHWYKYPLTYWLNIITSLGCLEGGDMDIAYLSEIDPTWTDSSLTTILNPEAVIFANPIAQGACAADAIASAFNMPLDVLFWCAGSQGSMYPFNGWVSNESSPLQSSLLVSERMAFKLHRQGMIMETIGKNNAVCNEYPSPILPKERWRYQMVNMYPDSGQCHPFGRSVMPWETGKNPPNTKKNFGYLMWRKRNCVFLEGHHHHHH,soluble
6,MGSDKIHHHHHHMVSPEHLRRSKAVQRRTGRTFHIATRFLPERVRYPTYVLYAFFRLTDEIVDDEAPGPPDEQRRRLAHVRAAALGDRDPDDPVLAAFAALREDHDIPREEVTTFIDAMQQDVDTARYRSHDDLAEYLRGSSVAVGYMMLSIMDAPEPERARPHAASLGEAFQLTNFLRDVREDVLDYDRIYLPSQTLAAHGASHDDIAALSATPQVRDAIRAELDRTERLYRHGVAGIEHLPADCQFPVLAAAVMYADQHRLIRAQDCDVLSQRPTLTLRRRLSVVARTWLRWRVSDDPTAVFHAVTGIGEPDAGGVPEQSFAVRESQPTRAD,not soluble
7,GPGSMSTTAHATSMGPLPYPNALQSRHTTTEQRQIAAAAVRAYQGTLEQEKVLLQENDALLSEEEAGRLQRRVDNQAAADATAAQFRDRACKVVASVPGEQHQSEGGVIDIFHAACDGDVAALDACLRSASDINALGQPDPARYNGFQFKQRWLFRAPPLVFAAAFGREEAVRLLLEHGADPHVASTTGLRAQDYAAQRGYSAIVLMLTSGAPQ,soluble
8,MYRAWDPSLTTIDSFLVNELLLHAHPTKTPPEVTEGQTPSSSSSSSTDSGRETMLEEEEAACCDLDSELARIGDENTAEIRELCLPLEIDSRCNLCAIVSICLRRDPQQKWLLDYCFLCHKCAAAPRTAMATLIVATEFLHLMKLHFRDIAFDNIFKERIVTIFDFHAHFFINRCYTQRDEHPVMVENITLAHMAVTRALLTDDDAVPYTKRRKIQYKLPKKPAPAEPEELRLLDKYRRATEGSFARVLFYIWSGTNVMFNTTLTDLAIKKSKALKALKTRQSEIEPSVGPVFLSPIPTFRLRNATTTVCLLCELMACSYRDNVFLQQLRERITNYSRNNLKIIDRTQLTMAEILSHGRNSEFPQQLKNKDVSIYVTSSPETLAAASRPGTEEPFELSALTYLVLRQVGVIGVYKHLFADPLCAANMRSTDPNILFFDVPNEYLNEAKLAICSTNAYPSRVERDFWLYAHMFKAFQIIKRNFKTKTQLSDFLRDFSQVLESHDFSLVDPSFTVEKYV,not soluble
9,MPLALGGTPFEKHVWARLMEIPLGQTRAYGDLAREMERPEVVRAVGRANGANQLAIVVPCHRILGADGSLTGYGGGLWRKQWLLRHEEKIGTETRMEETALEHHHHHH,not soluble
10,MSSSQELRSNFYREKNLMETVFDALKAMGKATSIELAARLDISREEVLNELWELKKAGFVDKSAYTWRVADNNVQQEQPAQAELPEEITTATVAKISECDLTATIEQRGPQTADELATLFGTTSRKVASTLAMAISKGRLIRVNQGGKFRYCIPGDNLPAEPKAASVSPLWLSASSSACHGVLIITVITPSPTKNSATKMPENLEHHHHHH,not soluble
11,MGSDKIHHHHHHMIYKVISKDEFRNFVDALVRANTSYGPRQVDTDRNGEPIYQFMPVSSASEIAFDYTVTTSSAKHFLMPFREELSKFSFRDGDWDQEVKYDAPPIVLVGLRPCDINAINILDEVMLKGPYPSPYYLARRKNTFIIGMDHLPLPDCFCRSMNRHTTDHGFNLFASDIGESYFLSINSSKAFNFLKEFETTEPTEEDDCKLIERRKLIKQSFKTNVEVTGLPVFLDLEFDSPIWKKWGDKCLNCGSCAMVCPTCYCYNVEEHFETNLESSSRQRRLYSCNLIDFAEVTGGHNFRPKNGDRLKYRYYHHYRGFAVNDNQQICVGCNRCGRACLAGINPKDVINDLRLEKESCVTCVSPSPAKT,not soluble
12,AQRVKDRPDGDTRRSELTMKLINKRGAVRERKLISYSIDMGKDKKDKKTIMFFLYPGDVKGTGFLTWDYDQIGKDDDKWLYLPAMKKTRRISGASAKKDYFMGSDFTYDDMGSRNVDEDTHKLLGEETFDGHKCWKLESTSKDQRDVFSKKIAWIRQDCLIPVRVEYYDRMNRLHRLLELSDIAQVDGFWMAQKMNMSNVQTGHRTVLEIKKPEFNRPIDESKFTVTSLEK,not soluble
13,MAKAGGITNAVNVGIAVQADWENREFISHISLNVRRLFEFLVQFGKPHSLTYFSVLGFEFN,not soluble
14,MKRFGRFAGIALVLVVAALTARSCFSHDLIVRLSDRKEISFKQMMGDLRKVAVIYVGEVHDNPDHHVLQLRIIRGLHRAGVPLAIGMEMFTAGSQQELDRWVAGQTGTAAFQRIYRREWNLPWSLYGDILLFARDKRIPLIGLNVPRDITRKVGREGFASLTEDERRKLPPNITCDVDESYMAMIHRSYSSHGLSANTFRNFCEAQMLWNKSMAYHMVEYLRKNPGRTVVVITGGGHAIRGGMPVQVDRERPGLSSRVVLPDPVVRNGRIKAEEADYLWLSHLEHHHHHH,not soluble
15,MKDNRITVTDIPNTNLKKITLKNDFLEVVLLNYGARLHQLLMPNKNNHWENILLSYDSYQDVLKDQSFFGATVGPVAGRIRNGHWQNGILEQNSDGHHIHGGSKGWSFQYWTVEPFEKKDIIGVAFHLTDTISGYPGPIEATITYQLEDNHLRMISTGRSKQETLFNPTNHAYFNLSGDGKLDILSHLLSLNCQGMLELDDNKLPTGRILPASELSIRFNELTPIETILQRYPTGLDDVFSLVGSDLRQPQLCLQEPTSGRKMTIATTNQSMVLFSTTGFEAPFSINGQAMHSNYGLAIEPQEYPDIVHHPQWGSILLPANKKQTYQTVYQFNLL,not soluble
16,MKKKDTCEIFGYDEEKVNRIQGDLQTVDISGVSQILKAIADENRAKITYALCQDEELCVCDIANILGVTIANASHHLRTLYKQGVVNFRKEGKLALYSLGGEAIRQIMMIALAHKKEVKVNV,soluble
17,MEKKKVAEWLAQGSIAVPKLLLGHYKQLGLGEGELVLLLHMQSFFEEGVLFPTPAELAERMTVSAAECMEMVRRLLQKGMIAIEEHTDEQGIRNEKYTLEPLWEKLVHHLYTQAAQQGELGRQEEEES,soluble
18,MADRIELRGLTVHGRHGVYDHERVAGQRFVIDVTVWIDLAEAANSDDLADTYDYVRLASRAAEIVAGPPRKLIETVGAEIADHVMDDQRVHAVEVAVHKPQAPIPQTFDDVAVVIRRSRRGGRGWVVPAGGAV,soluble
19,LYRHFAHRPDDLYRLEWREYETLLARIFQSQGFDVELGPGRGDEGVDIRLIQRDPIGDIVTLVQAKKYGAGNKIDQTQVAALYGIQQSEDANFSMFVTTSAYAPVAKRFSAREKV,not soluble
20,MSLARQNRFDRTSFQTQIIDLSHDGRGVARPHGEGDKVTFVTGALPGEVVIVEPVARNRHFDEARVVEVLQASPQRVIPRCSHFGVCSGCVLQHLAEDAQVVSKQRVLLESLERIGRVSPERVLPALAAESWGYRRKGRFSVRWVEKKGRTLVGFREHDPRFVADVSVCHTVVPQVGEKIALLATLLNSLDGRRDVPQIEFIAGDAVVALTVRHLQPLSEADRLALIEFGKEHGIAIFLQSGGVESVRLLWPDEVLLAFRLKPWDVEFVFRPLDFIQINGGLNEKMIAHALDLLGAGFGERVLDLFCGLGNFTLPLARTVDEVVGVEGDIGLVERARENARRNGLGNAEFFVADLTRDQRDAPWMRQGFDKLLLDPPRSGAIEVLKQLPLKMFERIVYVSCHPGSLARDADFLVNEQGFVLRAVGAMDMFPHTAHVESIAVFDRCEGHHHHHH,soluble
21,MGHHHHHHSHMCVARVYHGWLFEGLGRDKAEELLQLPDTKVGSFMIRESETKKGFYSLSVRHRQVKHYRIFRLPNNWYYISPRLTFQCLEDLVNHYSEVADGLCCVLTTPCLTQSTAAPAVRASSSPVTLRQKTVDWRRVSRLQEDPEGTENPLGVDESLFSYGLRESIASYLSLTSEDNTSFDRKKKSISLMYGGSKRKSSFFSSPPYFED,soluble
22,MNYNIRGENIEVTPALKDHVERKIGKLERYFDHSVDADVNVNLKFYNDKESKVEVTIPMTDLALRSEVHNEDMYNAIDLATNKLERQIRKHKTKVNRKFREQGSPKYLLANGLGSDTDIAVQDDIEEEESLDIVRQKRFNLKPMDSEEAILQMNMLGHNFFVFTNAETNLTNVVYRRNDGKYGLIEPTELEHHHHHH,soluble
23,MGSDKIHHHHHHCQNAAATDTNQSVSAKLQQQALSSSLAYDIVESLTVEVGPRLAGSDKDLVAVEWAEKKLGSLGFDKVYKEAVQVPVWQRGEAKANIVSPYAQPLVITALGGSVGTPEEGISAPIVRFETLDELKQADPSLVAGKIVFIDHITPRFKTGKGYGMTVGGRSRGAIAAAEKGALAIVIRSIGTDHDRMAHTGMMRYQEGVDKIPAAAMSNPDADLVTLMLKRDPNVVLHLEMSPKNLGYATSYNVIAEVTGSSKPDEIVLIGAHLDSWDEGTGAIDDGAGVAIVTAAGHYISQLRVKPARTVRVVLYAAEELGLIGGKSYAKDHQAELAQHYIAAESD,not soluble
24,DESSKNGLMDMVSQGLNAESSPLTELLTSQLPVSTEQAAGGSSALIALAQSQLSQQNSTELQSLIPGLSNLKGAQSLLGNIESLSAVQSAFN,not soluble
25,PRVELEIPEDVDAEQDHLDITVEGDNGSVTRRLWYPDIDVSVDGDTVVIESDEDNAKTMSTIGTFQSHIENMFHGVTEGWEYGMEVFYSHFPMQVNVEGDEVVIENFLGEKAPRRTTIHGDTDVEIDGEELTVSGPDIEAVGQTAADIEQLTRINDKDVRVFQDGVYITRKPNRGDA,soluble
